The values that follow come from the DeepSol protein solubility set.

The series is described as follows: soluble on expression in E. coli; label from the status in PepcDB or PDB records.
In the case of “MLLYKDVISGDELVSDAYDLKEVDDIVYEADCQMVTVKQGGDVDIGANPSAEDAEENAEEGTETVNNLVYSFRLSPTSFDKKSYMSYIKGYMKAIKARLQESNPERVPVFEKNAIGFVKKILANFKDYDFYIGESMDPDAMVVLMNYREDGITPYMIFFKDGLVSEKF”, the “soluble on expression in E. coli” value was “soluble”.
As for “MLMLEREKLARLIKKRSLKVADEPVFKLSSGKLSRYYVDLKQITFDPEGDYLIGKAMYELVKEFNPDACGGLTLGADPIAYAIAFVSLMDSNPIKPFVVRKEPKGHGMKRQIEGLLNPGERVAVLEDVVTTGSSALKAVKACREYGLEVIGVFAVVDREEGGRENIEKEGIPLYSLFKLSELL”, the “soluble on expression in E. coli” value is given as “soluble”.
Turning to “MLMPRQTTPPLSLPLVGGGRFDLSAETSTRWTLICFYRGLHCPICATYLKELEKRVADFAERGVACVAVSSDSEERAQAMAEKVGGGTLRFAYDLPLAEARDWGLYISTSRGKTSIGIEEPALFSEPGLFLVTPERTLYYGAVQTMPFVRPHFSELVAALDFAIPNNYPARGEYTGAV”, the “soluble on expression in E. coli” value is on record as “soluble”.
Then “MLNEQIFSNARVVTAEQVFIGTVVVRDGLIAEVQTGRSQLSQAQDLEGDFLLPGLVELHTDNLEKHLSPRPGVDWPSMSAVISHDAQIVAAGITTVFDALSIGDINPKGKRMQQLPAMLQAIADANEAGLTRADHLLHLRCEVSHPDTLNVFRDLVGQPLVQLVSVMEHAPGQRQFALESKYREYYMGKYHMSHEEMDHFIVEQVANSTEYADRYRRAIVELCLARGLSIASHDDATMAHVEESAGFGMNIAEFPTTLEAAQGCRQLGMSVLMGAPNIVRGGSHSGNVAAASLARHGLLDILSSDYYPASLLQAAFMLAEQDNDCELPHAINMVSRTPAIAAGLADRGEIRVGLRADLIQARNHAGLPVIDKVWRQGKRVF”, with “not soluble”; and “MLNITEDEIDSISLLNNPLKDPSKRSIIIIDHSRNDRSPILIGLQGFFGTNRSFMNRYFNKVDFISVLEKIAEKAENDGFIIALPDTMTSLYGNQYINSPAVGNYEDFIVSDVLEYLFKRYGKRPVGLFGKSSGGFGAYTLAVRHPDKISGFVDVAGDSGFEYCYLPDFPAAIKYFRRYGVLEWYTYVKSKMNMSPEDMKVVNVLAMSAFYSPDQEAEMGIGLPFDTRTGLLKYDVWDKWRRLDPAFNISNNIDVLKDMAVFMQVGSRDDFHIDIGMEAMHNFLEKNGIVHFFETYDETHFDLDYLYLKSLPLLIELISD”, with “not soluble”; and “MLNSWPLAKDLQVLVEIVHSGSFSAAAATLGQTPAFVTKRIQILENTLATTLLNRSARGVALTESGQRCYEHALEILTQYQRLVDDVTQIKTRPEGMIRIGCSFGFGRSHIAPAITELMRNYPELQVHFELFDRQIDLVQDNIDLDIRINDEIPDYYIAHLLTKNKRILCAAPEYLQKYPQPQSLQELSRHDCLVTKERDMTHGIWELGNGQEKKSVKVSGHLSSNSGEIVLQWALEGKGIMLRSEWDVLPFLESGKLVQVLPEYAQSANIWAVYREPLYRSMKLRVCVEFLAAWCQQRLGKPDEGYQVM”, with “soluble”.
Turning to “MLNVGATAPDFTLRDQNQQLVTLRGYRGAKNVLLVFFPLAFTGICQGELDQLRDHLPEFENDDSAALAISVGPPPTHKIWATQSGFTFPLLSDFWPHGAVSQAYGVFNEQAGIANRGTFVVDRSGIIRFAEMKQPGEVRDQRLWTDALAALTA”, the “soluble on expression in E. coli” value is on record as “soluble”.
For “MLPAVPPQQWALSAGNGSSEVEVVPFQEVWGRSYCRALERLVDVVSEYPSEVEHMFSPSCVSLLRCTGCCGDENLHCVPVETANVTMQLLKIRSGDRPSYVELTFSQHVRCECRPLREKMKPERCGDAVPRR”, the “soluble on expression in E. coli” value is given as “soluble”.
Turning to “MLPEEHLMLRQAVILVGGLGTRLGERTKARPKPMLEIGGRPFLDTLIDELDRYQIFDEILLLAGHKAEIVETHYAGATRGRAKIVVSRETEPLGTGGALVHAAPLLDQHFLLLNGDSLFDFNLLDLIARAQGGRVHMALRDGVVGDRYGRVVLDGDIVRDFIAPGAGATGPVNAGIYVVDKSIIAEIAKLPASLEQDVFPGLVRSGELRGTAYRGYFIDIGIPDDFARADRELREKLQRPAVFFDRDGVLNHDSGYTFETHKLEWIEGAREAVKAVNDAGYFAFVITNQSGVARGYYEEHHVLALHRWMADQMALIGAHIDAFEYCPDHPDGTVARYCRISDRRKPAPGMITDLAQRFSVDMTRSMVVGDKDSDMAAAQAAGLAGHMFEGGNLEAFVKQRLKPADKGLEHHHHHH”, the “soluble on expression in E. coli” value is “not soluble”.
Then “MLPEHLVSSHFRLSSPPPEATENSKNLPKGKTKLSDYEPDILISANAAGQHRNVLFEERDRHIKERLYCVAKIETFARLINALQAEGDIDAQTLSKILADKTAMINEKGNAIWLNLITRETDMPLFYSLEDKDERS”, with “not soluble”; and “MLPEIWKHDSPYFRPEGDTRGEAVLPIGMPMRQQYDFSSSRKNPYAAKLKKPVTIRLDEESISYFKSMSEETGIPYQSLINLYLKECAASGKRLNLSWK”, with “not soluble”.
In the case of “MLPLIYHSIYSRLELPEGHRYPIMKYQYLYEEVRRDVQAEWVQFFEPQALSIEAIKRVHDADYVDLLAQGNMPAAKMRRIGFPWSEALITRTLTSAAG”, the “soluble on expression in E. coli” value is “not soluble”.
As to “MLPPGMVAAESDFYLRRLWGLPHEDLKSEPRYLATFTVGINQKANIDACVKKFSENFTIVLFHYDGRVTEWDEFEWSKTAIHISVRKQTKWWYAKRFLHPDIVARYDYIFVWDEDLGVEHFNAEEYVKMVKKHGLEISQPGLEPNQGLTWQMTKRRGDMEVHKITEERPGWCSDPHLPPCAAYVEIMAPVFSRNAWRCVWHVIQNDLVHGWGLDFALRRCVEPAHEKIGVVDSQWVVHQSFPSLGNQGEATDGKAPWQGVRDRCKKEWTMFQSRMANAEKDYFKSLQVEGSSNSTATTI”, the “soluble on expression in E. coli” value is reported as “soluble”.
As to “MLQGDITMRYNSLNSYLKEKFGCKIYKLALSGGLSCPNRDGTISTGGCIFCSNGGSGDFAADKMLSITEQIESAKNRVSAKIKNGKYIAYFQSFTNTYGDIDYLRSIFTEAINHPDIVALSIGTRPDCLPDEVLNLLGELNKIKPVWVELGLQTIHENTAKYINRGYTLDVFNTAVNNLNKINVDVIVHLIIGLPFESKEDILESVKYVSSMNISGIKLQLLHVLKNTPLEKEYSLNKFEVLSMEEYVNIIAECLRYIPKSIVIHRLTGDGPKSILVAPLWSGNKKAVLNYMNKRFNELNVIQGSLCS”, the “soluble on expression in E. coli” value is given as “not soluble”.
As to “MLQHKILGLDVGSRTVGIAISDIMGWTAQGLDTLRINEENNELGIDQLVDIIKKHNVGTVVIGLPKNMNNSIGFRGEASLTYKEKLLEAYPSIEIVMWDERLSTMAAERSLLEADVSRQKRKQVIDKMAAVFILQGYLDSLHLEHHHHHH”, the “soluble on expression in E. coli” value is listed as “soluble”.
For “MLQVRVKPGVEDRIRGFFPWVYRSEIASFSRKPKKGEIVVVRDVNGKFLGYGYINPEVNIAIRILSFDKNEPVTPELIRKRIKQAYEYRKRLYINSNAYRLVHSEGDLLPGLIVDVYGSYLAVEFTTYGMNQFREVILDTLVELLRPKGIYEKVNEIAKRVEGLDVEERVIYGEVPEEVIIWEHDLKYYINIPQGQKTGFFLDQRNARKFVRNLVEPGDRCLDVFCHTGGFALNMKRAGAGEVIGVDISELALKEAEKNARLNGFTDIKWVKANAFDYLRELDKKGEKFDVIIIDPPSFAKNRAAVPNALRGYKELCVRGLKIAKSGGYLAIFSCSFHITEQHLLDVLLQASYDVRRQVRVIAKTFQDLDHPWILQMPNTLYLKGVWVEVV”, the “soluble on expression in E. coli” value was “soluble”.
With “MLREVVHRFGESDFTFLSVLDSYALLDRIDPAAFVKDEQMPYWAEIWPAAVTLSRQIVETGELAGKSVLELGAGVGMASIAAARSGARVLCTDYSTEALRFVAYNAMKNRVPLDTARLDWRMVKGAEKFDAVIAADVLYERVNLLPIVTAIDALLAPGGAAYIADPRRRLADQFLELVHENGFEVAETRMFDAEGDQTVAVTIYKLQRLKALEHHHHHH”, the “soluble on expression in E. coli” value is recorded as “not soluble”.
The value for “MLRPYVAEWFRSTYGSFTEPQRQAIPLVKQGKSVLITSPTGTGKTLAAFLGVIDEILFLMENRWEEKGILAVYVSPLRALNNDIRRNLEEPLRGIEEKAREMGLEPPRVKVAVRTSDTTPYEKQKMVKDPPHILITTPESLAAALAAPKFRERLSTVKWVVLDEIHELASNKRGAHLMVSVERLEELVREAGGKPLRRIGLSATIAPLDVVANFLGGFDDEGRPREVHIVDARFAKPIDIKVITPDVDLLRDPPDKINEAIYRKIAELVKQHRTTLIFTNTRSATERVVHKLKQILVKEGIASEDQIEAHHSSLSRNLRLDVEERLKRGELKVVVSSTSLELGIDIGYIDLVILLSSPKSVSRLLQRVGRAGHRIRDVSKGRLIVVDRDDLVECSVLADCAMKKFIDRVRIPMKPLDVLAQHIVGMSIEKKWRLEDAYRVVKRAYNFKDLSFEEFMSVVRFLAGKHGLEGEGVYSKIWLDEEEGLFGRKKSARMIYLLNVGVIPDETKIRVYTRDGKYVGDLEEEFVEILVPGDVFVLGGRTYRFLKSEGLRVIVERADDARPTVPSWFSEMLPLSFDSALKVGEFRRVFSALASSNPRAAVEKLVKEYYLEERAAATIVEYILEQLGYIGVVPSDKLVLIEYFPYEDGWGIVFHTLFGRRVNDALSRAYAVALSRRIGLPVRVAVTDNGFMLTVSEAGKPDASLLEKLIRDVTPENIRGILEEAISRTELMKRRFKHVAARMFIVLRRYKGKEVSPERLQLNSQKLLEVFLEEMKDSPPIRETFREILEDYMDIGAAGKVLEWIRKGEIEIVIKGPLPYPSPMAHSIVVRGYSDVVLMEDRRKMLMILREKVLEYIRKGRAAPTWVGGDGKGRLLKEEQ” was “soluble”; that for “MLRQLTFLFPTKFHRGKKLRTQRYRGLQSKEKKKLSLLTTKFSDEAWGDNHKNKVVYRAQDRFHNPLFIVLMVVKKKLDHKKLIDNNSHYHVCI” was “not soluble”.
As for “MLSAAAFAADKVVKLPKPNLNRTGTVMKALSERQSTREYASKALTLADLSDLLWAANGINRSDAGKRTAPSAMNKQDVDVYVILSEGSYLYDAKNHQLNLIAEGDYRGAVAGGQAFVKTAPVSLVLISDVSRFGDAQKIQNQLMGAMDAGIVSQNISIFCSAAKLATVPRASMDAAQLKKVLKLKDSQIPMMNHPVGYFK”, the “soluble on expression in E. coli” value was “not soluble”.
Then “MLSCELYRMSTYSTFPAGVPVSERSLARAGFYYTGVNDKVKCFCCGLMLDNWKRGDSPTEKHKKLYPSCRFVQSL”, with “soluble”.
The value for “MLSDITIHNLGVIPSASLELSEGLTVLTGETGAGKTMVVTGLRLLAGGRAEAQRVRSGSSQAVVEGRFLLDSVAPESAEMARAVVSAAGGALDENGEVIVSRTVSAHGRSRAHLGGRSVPAASLVEFSKEVLTIHGQNDQLRLLNSDRQRDALDRFSQKISALMTVYSEAYRAWKNLSKDLQERQASKRELAQEVDRLEFAIREISEVDPQPGEEADLLVQIARLQDVDDLRAQAVGALSVIDGAAGVEGYATCDSSDADAASDLIGQALSSVRVSSDPTLQGVSQQLEAVTSILMEVSAQLGGFLDELPADPQMLDKLLQRQQALKQLTRKYASDIDGVIKWKLKAEQKLESIDVSPEALDQLKKETALAERKMNDAGMALRAARIEAAQELSNAVTKELHGLAMPKAMFSVVVHPTEPQPSGFDEVEFCLAPNNATDPRPLASSASGGELSRVMLALEVILSAGQHGNTLVFDEVDAGVGGRAAVEIGRRLARLAQNNQVIVVTHLPQVAAYADTHLHVAKDVGESTVTSGVEKLSEQRRVEDLARMLAGLEDTDTGRAHAKELFEKAQAENRAFRV” was “not soluble”; that for “MLSEWQNHKAQLRNYVYKRVDDASAVDDILQDVYIKASSNLHQLKSKGSLKGWLYKIAYNTIMDFYRDKLPYDELPEDLVAEDEDAVEESRKEIAECMRPLIDELPDKYSVPLRLAELDGIPQQEIADKLGLSLSGAKSRIQRGRVKFRENLMTCCDFEINDGGMVTGYTPKKTNCSSPKR” was “not soluble”.
